T1: pre-assembled intra-Golgi cis-QabcR-SNARE complex GST-Sec22p/Sed5p/Gos1p/Sft1p (S. cerevisiae, UniProt P22214;Q01590;P38736;P43682)
T1 sequence 1: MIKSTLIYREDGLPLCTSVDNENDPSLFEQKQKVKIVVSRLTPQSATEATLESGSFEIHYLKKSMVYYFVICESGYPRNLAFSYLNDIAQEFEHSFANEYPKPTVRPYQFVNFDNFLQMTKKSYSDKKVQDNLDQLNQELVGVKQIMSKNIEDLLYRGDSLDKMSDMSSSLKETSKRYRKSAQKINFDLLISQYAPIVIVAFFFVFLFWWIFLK
T1 sequence 2: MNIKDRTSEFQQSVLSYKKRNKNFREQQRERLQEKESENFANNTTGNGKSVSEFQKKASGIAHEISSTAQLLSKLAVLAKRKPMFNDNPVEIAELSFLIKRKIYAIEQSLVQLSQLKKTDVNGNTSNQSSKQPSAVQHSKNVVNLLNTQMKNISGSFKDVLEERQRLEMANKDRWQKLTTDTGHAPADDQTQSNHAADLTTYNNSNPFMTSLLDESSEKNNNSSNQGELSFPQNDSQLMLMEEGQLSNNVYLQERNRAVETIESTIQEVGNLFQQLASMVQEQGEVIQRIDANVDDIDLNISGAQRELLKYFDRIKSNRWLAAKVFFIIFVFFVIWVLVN
T1 sequence 3: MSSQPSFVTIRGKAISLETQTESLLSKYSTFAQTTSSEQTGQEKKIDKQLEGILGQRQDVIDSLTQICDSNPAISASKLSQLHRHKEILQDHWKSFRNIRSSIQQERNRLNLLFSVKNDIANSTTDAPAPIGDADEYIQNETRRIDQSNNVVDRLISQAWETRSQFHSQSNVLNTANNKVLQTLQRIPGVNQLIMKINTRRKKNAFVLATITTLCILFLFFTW
T1 sequence 4: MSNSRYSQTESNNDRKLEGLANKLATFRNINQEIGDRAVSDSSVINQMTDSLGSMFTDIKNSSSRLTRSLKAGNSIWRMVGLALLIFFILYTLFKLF

T2: pre-assembled ER-Golgi cis-QabcR-SNARE complex GST-Sec22p/Sed5p/Bos1p/Bet1p (S. cerevisiae, UniProt P22214;Q01590;P25385;P22804)
T2 sequence 1: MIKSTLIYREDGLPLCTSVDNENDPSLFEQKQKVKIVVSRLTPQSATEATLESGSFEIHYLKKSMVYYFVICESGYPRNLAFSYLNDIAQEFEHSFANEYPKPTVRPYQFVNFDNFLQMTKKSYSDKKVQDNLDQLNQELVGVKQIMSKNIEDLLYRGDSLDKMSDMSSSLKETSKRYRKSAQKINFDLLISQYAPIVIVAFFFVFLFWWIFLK
T2 sequence 2: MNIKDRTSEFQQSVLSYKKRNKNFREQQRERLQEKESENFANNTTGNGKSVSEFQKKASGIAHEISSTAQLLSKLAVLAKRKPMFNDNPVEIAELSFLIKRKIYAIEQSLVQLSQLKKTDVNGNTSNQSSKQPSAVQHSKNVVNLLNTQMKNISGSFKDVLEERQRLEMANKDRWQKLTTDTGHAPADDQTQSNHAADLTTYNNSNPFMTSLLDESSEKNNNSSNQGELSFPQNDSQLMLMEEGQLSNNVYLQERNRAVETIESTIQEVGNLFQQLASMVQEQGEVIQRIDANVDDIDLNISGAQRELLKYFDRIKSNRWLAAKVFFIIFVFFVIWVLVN
T2 sequence 3: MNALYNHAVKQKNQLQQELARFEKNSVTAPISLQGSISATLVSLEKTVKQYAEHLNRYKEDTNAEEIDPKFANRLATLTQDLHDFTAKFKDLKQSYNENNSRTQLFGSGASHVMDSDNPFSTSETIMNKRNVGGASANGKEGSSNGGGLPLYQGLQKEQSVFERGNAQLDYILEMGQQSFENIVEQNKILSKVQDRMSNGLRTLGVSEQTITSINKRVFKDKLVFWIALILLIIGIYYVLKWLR
T2 sequence 4: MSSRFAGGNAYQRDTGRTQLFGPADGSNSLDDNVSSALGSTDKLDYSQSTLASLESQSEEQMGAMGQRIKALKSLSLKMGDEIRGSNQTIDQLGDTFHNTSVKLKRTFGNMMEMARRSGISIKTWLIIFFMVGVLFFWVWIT

T3: mixed 3Q-SNARE set Sed5p/Gos1p/Bet1p reconstituted on proteoliposomes (S. cerevisiae, UniProt Q01590;P38736;P22804)
T3 sequence 1: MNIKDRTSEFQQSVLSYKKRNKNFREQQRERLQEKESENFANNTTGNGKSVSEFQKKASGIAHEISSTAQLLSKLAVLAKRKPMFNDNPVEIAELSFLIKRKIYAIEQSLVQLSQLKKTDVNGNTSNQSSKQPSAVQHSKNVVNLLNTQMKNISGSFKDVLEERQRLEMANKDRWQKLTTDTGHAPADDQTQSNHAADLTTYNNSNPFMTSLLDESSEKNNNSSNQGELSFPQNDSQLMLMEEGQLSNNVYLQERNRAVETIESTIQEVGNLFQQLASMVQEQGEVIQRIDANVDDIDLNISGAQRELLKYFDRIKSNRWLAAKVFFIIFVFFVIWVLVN
T3 sequence 2: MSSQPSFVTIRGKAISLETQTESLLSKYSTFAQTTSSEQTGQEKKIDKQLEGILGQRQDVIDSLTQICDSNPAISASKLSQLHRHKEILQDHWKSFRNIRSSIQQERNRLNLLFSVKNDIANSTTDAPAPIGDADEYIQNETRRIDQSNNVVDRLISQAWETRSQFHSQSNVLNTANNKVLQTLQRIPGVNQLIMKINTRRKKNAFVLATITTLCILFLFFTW
T3 sequence 3: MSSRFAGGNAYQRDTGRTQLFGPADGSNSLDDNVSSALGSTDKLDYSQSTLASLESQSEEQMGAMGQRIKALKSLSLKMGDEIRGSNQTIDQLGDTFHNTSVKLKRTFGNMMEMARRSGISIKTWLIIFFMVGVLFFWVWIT

T4: ER-Golgi 3Q-SNARE set Sed5p/Bos1p/Bet1p reconstituted on proteoliposomes (S. cerevisiae, UniProt Q01590;P25385;P22804)
T4 sequence 1: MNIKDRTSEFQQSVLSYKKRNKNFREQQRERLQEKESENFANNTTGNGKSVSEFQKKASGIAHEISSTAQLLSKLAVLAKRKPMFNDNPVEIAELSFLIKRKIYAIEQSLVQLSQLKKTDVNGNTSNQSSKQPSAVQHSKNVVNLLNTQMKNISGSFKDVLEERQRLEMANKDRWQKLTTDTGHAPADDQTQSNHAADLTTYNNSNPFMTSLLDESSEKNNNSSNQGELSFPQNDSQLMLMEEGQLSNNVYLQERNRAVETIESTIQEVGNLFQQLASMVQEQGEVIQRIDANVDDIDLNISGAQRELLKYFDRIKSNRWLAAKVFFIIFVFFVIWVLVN
T4 sequence 2: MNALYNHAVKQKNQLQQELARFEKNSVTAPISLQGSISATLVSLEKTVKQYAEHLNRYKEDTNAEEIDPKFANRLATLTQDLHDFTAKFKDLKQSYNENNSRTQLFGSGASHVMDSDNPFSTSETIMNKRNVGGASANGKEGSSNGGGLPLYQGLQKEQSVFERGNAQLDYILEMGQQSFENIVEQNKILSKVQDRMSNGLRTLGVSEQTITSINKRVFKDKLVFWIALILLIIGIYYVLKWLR
T4 sequence 3: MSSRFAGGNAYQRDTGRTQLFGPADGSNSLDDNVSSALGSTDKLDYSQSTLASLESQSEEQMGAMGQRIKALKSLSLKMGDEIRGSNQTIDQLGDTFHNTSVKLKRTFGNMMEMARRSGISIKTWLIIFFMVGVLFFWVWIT

B1: His6-tagged Sly1p (natural protein)
chain: MAVEEIASRKDISLRDMQISAILKMLFLNKDLNNNDNITTITDDIFNQQEIIWKVLILDIKSTATISSVLRVNDLLKAGITVHSLIKQDRSPLPDVPAIYFVSPTKENIDIIVNDLKSDKYSEFYINFTSSLPRNLLEDLAQQVSITGKSDKIKQVYDQYLDFIVTEPELFSLEISNAYLTLNDPKTTEEEITGLCANIADGLFNTVLTINSIPIIRAAKGGPAEIIAEKLGTKLRDFVINTNSSSTSTLQGNDSLERGVLIILDRNIDFASMFSHSWIYQCMVFDIFKLSRNTVTIPLESKENGTDNTTAKPLATKKYDIEPNDFFWMENSHLPFPEAAENVEAALNTYKEEAAEITRKTGVTNISDLDPNSNNDTVQIQEVVKKLPELTAKKNTIDTHMNIFAALLSQLESKSLDTFFEVEQDPGSTKTRSRFLDILKDGKTNNLEDKLRSFIVLYLTSTTGLPKDFVQNVENYFKENDYDINALKYVYKLREFMQLSNMSLQNKSLEDGSDSAFKPSNLTLSGIYGLTEGKLQGGVGSLISGIKKLLPEKKTIPITNVVDAIMDPLNSSQKNLETTDSYLYIDPKITRGSHTRKPKRQSYNKSLVFVVGGGNYLEYQNLQEWAHSQLHNPKKVMYGSTAITTPAEFLNEISRLGASNSSNNDA
B2: intra-Golgi 3Q-SNARE set Sed5p/Gos1p/Sft1p reconstituted on proteoliposomes (complex)
chain 1: MNIKDRTSEFQQSVLSYKKRNKNFREQQRERLQEKESENFANNTTGNGKSVSEFQKKASGIAHEISSTAQLLSKLAVLAKRKPMFNDNPVEIAELSFLIKRKIYAIEQSLVQLSQLKKTDVNGNTSNQSSKQPSAVQHSKNVVNLLNTQMKNISGSFKDVLEERQRLEMANKDRWQKLTTDTGHAPADDQTQSNHAADLTTYNNSNPFMTSLLDESSEKNNNSSNQGELSFPQNDSQLMLMEEGQLSNNVYLQERNRAVETIESTIQEVGNLFQQLASMVQEQGEVIQRIDANVDDIDLNISGAQRELLKYFDRIKSNRWLAAKVFFIIFVFFVIWVLVN
chain 2: MSSQPSFVTIRGKAISLETQTESLLSKYSTFAQTTSSEQTGQEKKIDKQLEGILGQRQDVIDSLTQICDSNPAISASKLSQLHRHKEILQDHWKSFRNIRSSIQQERNRLNLLFSVKNDIANSTTDAPAPIGDADEYIQNETRRIDQSNNVVDRLISQAWETRSQFHSQSNVLNTANNKVLQTLQRIPGVNQLIMKINTRRKKNAFVLATITTLCILFLFFTW
chain 3: MSNSRYSQTESNNDRKLEGLANKLATFRNINQEIGDRAVSDSSVINQMTDSLGSMFTDIKNSSSRLTRSLKAGNSIWRMVGLALLIFFILYTLFKLF
B3: mixed 3Q-SNARE set Sed5p/Vti1p/Tlg1p reconstituted on proteoliposomes (complex)
chain 1: MNIKDRTSEFQQSVLSYKKRNKNFREQQRERLQEKESENFANNTTGNGKSVSEFQKKASGIAHEISSTAQLLSKLAVLAKRKPMFNDNPVEIAELSFLIKRKIYAIEQSLVQLSQLKKTDVNGNTSNQSSKQPSAVQHSKNVVNLLNTQMKNISGSFKDVLEERQRLEMANKDRWQKLTTDTGHAPADDQTQSNHAADLTTYNNSNPFMTSLLDESSEKNNNSSNQGELSFPQNDSQLMLMEEGQLSNNVYLQERNRAVETIESTIQEVGNLFQQLASMVQEQGEVIQRIDANVDDIDLNISGAQRELLKYFDRIKSNRWLAAKVFFIIFVFFVIWVLVN
chain 2: MSSLLISYESDFKTTLEQAKASLAEAPSQPLSQRNTTLKHVEQQQDELFDLLDQMDVEVNNSIGDASERATYKAKLREWKKTIQSDIKRPLQSLVDSGDRDRLFGDLNASNIDDDQRQQLLSNHAILQKSGDRLKDASRIANETEGIGSQIMMDLRSQRETLENARQTLFQADSYVDKSIKTLKTMTRRLVANKFISYAIIAVLILLILLVLFSKFK
chain 3: […]

Legend:
[1] = biological target: T1, pre-assembled intra-Golgi …; experiment: pull-down
[2] = biological target: T2, pre-assembled ER-Golgi cis-QabcR-SNARE …; experiment: pull-down
[3] = biological target: T3, mixed 3Q-SNARE set Sed5p/Gos1p/Bet1p …; experiment: co-sedimentation
[4] = biological target: mixed 3Q-SNARE set Sed5p/Vti1p/Bet1p reconstituted on proteoliposomes (S. cerevisiae, UniProt Q01590;Q04338;P22804); experiment: co-sedimentation
[5] = biological target: T4, ER-Golgi 3Q-SNARE set Sed5p/Bos1p/Bet1p …; experiment: co-sedimentation
[6] = biological target: mixed 3Q-SNARE set Sed5p/Vti1p/Vam7p reconstituted on proteoliposomes (S. cerevisiae, UniProt Q01590;Q04338;P32912); experiment: co-sedimentation
[7] = biological target: B1; experiment: co-sedimentation

Sequence of mixed 3Q-SNARE set Sed5p/Vti1p/Vam7p reconstituted on proteoliposomes (P32912 whole entry, one chain of several): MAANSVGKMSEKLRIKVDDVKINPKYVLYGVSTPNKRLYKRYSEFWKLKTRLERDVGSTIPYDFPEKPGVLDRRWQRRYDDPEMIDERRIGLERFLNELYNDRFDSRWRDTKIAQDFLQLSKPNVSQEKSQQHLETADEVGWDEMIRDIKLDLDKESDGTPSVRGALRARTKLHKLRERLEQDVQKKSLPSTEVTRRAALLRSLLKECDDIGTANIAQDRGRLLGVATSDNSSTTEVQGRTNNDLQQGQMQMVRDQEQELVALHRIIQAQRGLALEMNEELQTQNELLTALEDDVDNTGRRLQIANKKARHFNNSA

Binder	binding result [1]	binding result [2]	binding result [3]	binding result [4]	binding result [5]	binding result [6]	binding result [7]
B1	binds	binds	binds	binds	binds	binds	–
B2	–	–	–	–	–	–	binds
B3	–	–	–	–	–	–	binds

— paper PMC3940976 (Scientific Reports, 2014)
